PMC4159076 (Cell reports, 2013)
Each block holds one molecule with its values, some of them ahead of it.

Tests used:
[1] = target: endogenous NPM (human cells) (human (endogenous in HEK293)) (UniProt P06748); test: denaturing gel electrophoresis with western blot
[2] = target: NPM (Flag-NPM / GST-NPM constructs) (UniProt P06748); test: GST pull-down, anti-Flag western blot; details: reference: Flag-NPM wild type; sites S125
[3] = target: the molecule itself; test: denaturing gel electrophoresis with western blot

stoichiometry N [1]: 6
Molecule: endogenous NPM (human cells) (from UniProt P06748 1-294) (natural protein)

binding against the reference [2]: weaker
Molecule: NPM (Flag-NPM / GST-NPM constructs) (from UniProt P06748) Flag-NPM S125A

B1: nucleophosmin (NPM) (endogenous, mouse cells) (natural protein, UniProt Q61937 1-292, looked up)
chain: MEDSMDMDMSPLRPQNYLFGCELKADKDYHFKVDNDENEHQLSLRTVSLGAGAKDELHIVEAEAMNYEGSPIKVTLATLKMSVQPTVSLGGFEITPPVVLRLKCGSGPVHISGQHLVAVEEDAESEDEDEEDVKLLGMSGKRSAPGGGNKVPQKKVKLDEDDEDDDEDDEDDEDDDDDDFDEEETEEKVPVKKSVRDTPAKNAQKSNQNGKDLKPSTPRSKGQESFKKQEKTPKTPKGPSSVEDIKAKMQASIEKGGSLPKVEAKFINYVKNCFRMTDQEAIQDLWQWRKSL
stoichiometry N [3]: 6
